Laboratory results reported in patent US20140080161A1, “PHOSPHATASE COUPLED KINASE ASSAY” (RESEARCH AND DIAGNOSTIC SYSTEMS, INC., priority 2010, published 2014).

Tests used:
[1] = ATP hydrolysis curve with increasing amounts of phosphatase, free phosphate by Malachite Green; format: biochemical; conditions: 0.25 μg phosphatase, 100 nmol of 2 mM ATP, 20 minutes
Source text: The relative activity of the phosphatase on ADP and ATP can be measured by creating hydrolysis curves for ADP and ATP. For example, such hydrolysis curves may be created by performing a series of reactions separately combining set quantities of ADP or ATP with varying quantities of phosphatase and detecting the free phosphate produced. An example of such curves is described in Example 1 below. The resulting phosphate levels (or OD readings, which directly correspond to the phosphate levels) can be plotted against the amount of phosphatase used. The phosphate level or OD readings can be compared at the same quantity of the phosphatase to determine the relative activity of the phosphatase for ADP as compared to ATP. […]
The kinase reactions were carried out in 50 μL of kinase assay buffer including 25 mM Tris, 150 mM NaCl, 5 mM MgCl2, and 5 mM CaCl2 at pH 7.5 in a 96 well plate at room temperature. […] The color was developed with 30 μL Malachite Reagent B. The plate was read at 620 nm with a multi-well plate reader. […]
In this experiment, the relative activity of rhCD39L2 on ADP and ATP was determined. […] The reactions were stopped after 20 minutes and free phosphate was measured using the Malachite Green assay as described above.
The relative activity of recombinant mouse CD 39L2 (rmCD39L2) on ADP and ATP was determined in a series of reactions similar to Example 1. […]

[2] = Specific activity of the phosphatase (free phosphate released per time per amount); format: biochemical
Source text: Phosphatases used in embodiments of the invention have a high specific activity on ADP. The specific activity of the phosphatase used in the examples is the amount of free phosphate released from a substrate per unit time and per amount of phosphatase under a given set of conditions, and may be determined at the rising phase of an enzymatic dose curve, such as the hydrolysis curve as described above. In some embodiments, the phosphatase has a specific activity of greater than 100 pmol/min/μg under optimal conditions. The conditions may include optimal pH, salt concentrations, and the presence of any cofactor. In other embodiments, the phosphatase has a specific activity of greater than 1,000 pmol/min/μg. In still other embodiments, the phosphatase has a specific activity of greater than 20,000 pmol/min/μg. When phosphatases having lower specific activity are used, larger amounts of such phosphatases or longer reaction times may be used to achieve the same level of hydrolysis as can be achieved with a phosphatase having higher specific activity.

[3] = enzyme as obtained from R&D Systems; cited from earlier work
[4] = ADP hydrolysis curve with increasing amounts of phosphatase, free phosphate by Malachite Green; format: biochemical
Source text: The relative activity of the phosphatase on ADP and ATP can be measured by creating hydrolysis curves for ADP and ATP. For example, such hydrolysis curves may be created by performing a series of reactions separately combining set quantities of ADP or ATP with varying quantities of phosphatase and detecting the free phosphate produced. An example of such curves is described in Example 1 below. The resulting phosphate levels (or OD readings, which directly correspond to the phosphate levels) can be plotted against the amount of phosphatase used. The phosphate level or OD readings can be compared at the same quantity of the phosphatase to determine the relative activity of the phosphatase for ADP as compared to ATP. […] The amount of phosphatase to be used for kinase reactions is preferably selected from within the rapidly rising portion of the ADP hydrolysis curve. In addition, the relative activity of the phosphatase for ADP versus ATP is preferably compared within this rapidly rising portion of the hydrolysis curve, at or near the steepest portion of the curve. At phosphatase levels below this range, the generated signals are weak, while at phosphatase levels above this range, the ADP hydrolysis approaches completion, which could underestimate the activity of the phosphatase on ADP due to exhaustion of the substrate.
The kinase reactions were carried out in 50 μL of kinase assay buffer including 25 mM Tris, 150 mM NaCl, 5 mM MgCl2, and 5 mM CaCl2 at pH 7.5 in a 96 well plate at room temperature. Each reaction was stopped with 30 μL of Malachite Reagent A and 100 μL of water. The color was developed with 30 μL Malachite Reagent B. The plate was read at 620 nm with a multi-well plate reader. If the predicted phosphate content in the reaction was above 4,000 pmol, the reaction was diluted before phosphate detection.
In this experiment, the relative activity of rhCD39L2 on ADP and ATP was determined. In a first series of reactions, 100 nmol of 2 mM ATP was combined with increasing amounts of rhCD39L2 (0.03125 μg, 0.0625 μg, 0.125 μg, 0.25 μg, 0.5 μg) for 20 minutes. Likewise in a second series of reactions, 100 nmol of 2 mM ADP was combined with the same increasing amounts of rhCD39L2 for 20 minutes. The reactions were stopped after 20 minutes and free phosphate was measured using the Malachite Green assay as described above.
The relative activity of recombinant mouse CD 39L2 (rmCD39L2) on ADP and ATP was determined in a series of reactions similar to Example 1. 100 nmol of 2 mM ATP was combined with increasing amounts of rmCD39L2 (0.03125 μg, […], 0.125 0.25 μg, 0.5 μg). Likewise in a second series of reactions, 100 nmol of 2 mM ADP was combined with the same increasing amounts of rmCD39L2. The reactions were stopped after 5 minutes and free phosphate was measured using the Malachite Green assay as described above.
The experiment of Example 1 was repeated using recombinant human CD39L4 (rhCD39L4). 100 nmol of ATP (2 mM) was combined with increasing amounts of rhCD39L4 (0.03125 μg, 0.0625 μg, 0.125 μg, 0.25 μg, 0.5 μg, 1.0 μg). Likewise in a second series of reactions, 100 nmol of ADP (2 mM) was combined with the same increasing amounts of rhCD39L4 for 5 minutes. The reactions were stopped after 5 minutes and free phosphate was measured using the Malachite Green assay as described above. […] As such, the necessary preference of the phosphatase for ADP as compared to ATP is present.

B1: rhCD39L2: recombinant human CD39L2, nucleotide phosphatase preferring ADP over ATP, used for coupling (protein, UniProt O75354 1-484, looked up)
Ectonucleoside triphosphate …: MKKGIRYETSRKTSYIFQQPQHGPWQTRMRKISNHGSLRVAKVAYPLGLCVGVFIYVAYIKWHRATATQAFFSITRAAPGARWGQQAHSPLGTAADGHEVFYGIMFDAGSTGTRVHVFQFTRPPRETPTLTHETFKALKPGLSAYADDVEKSAQGIRELLDVAKQDIPFDFWKATPLVLKATAGLRLLPGEKAQKLLQKVKKVFKASPFLVGDDCVSIMNGTDEGVSAWITINFLTGSLKTPGGSSVGMLDLGGGSTQIAFLPRVEGTLQASPPGYLTALRMFNRTYKLYSYSYLGLGLMSARLAILGGVEGQPAKDGKELVSPCLSPSFKGEWEHAEVTYRVSGQKAAASLHELCAARVSEVLQNRVHRTEEVKHVDFYAFSYYYDLAAGVGLIDAEKGGSLVVGDFEIAAKYVCRTLETQPQSSPFSCMDLTYVSLLLQEFGFPRSKVLKLTRKIDNVETSWALGAIFHYIDSLNRQKSPAS
phosphate released from ATP [1]: less than 3 nmole | specific activity on ADP [2]: > 20,000 pmol/min/μg | specific activity [3]: > 20,000 pmol/min/μg | phosphate released from ADP ([4]; 0.25 μg phosphatase, 100 nmol of 2 mM ADP, 20 minutes): about 80 nmol | fold more active on ADP ([4]; Example 1, 20 minutes, allowing for two hydrolyzable phosphates of ATP): about 70 fold | fold more phosphate released from ADP than from ATP ([4]; rising phases of the ADP hydrolysis curve, 20 minutes): 35 fold
